Legend:
[1] = target: T1, human β1-adrenergic receptor (human, UniProt P08588 1-477); assay: [125I] ZAG binding to crude membranes of CHO-K1 cells transfected with human β1-AR, non-linear regression
T1 construct: whole, on cells; CHO-K1 cells transfected with the human β1-AR, from the University of Nottingham; also called β1-AR; β-1AR
Protocol: (§1) Binding studies were carried out at 37° C. by incubating membranes (500 μg protein) in 0.4 ml 50 mM Tris HCl, pH 7.5, containing 0.5 mM MgCl₂ for 60 min with various concentrations of [¹²⁵I]
(§2) Non-specific binding was determined by the binding of [¹²⁵I]

[2] = target: T2, human β3-adrenergic receptor (human, UniProt P13945 1-408); assay: [125I] ZAG saturation binding to crude membranes of CHO-K1 cells transfected with human β3-AR, non-linear regression
T2 construct: whole, on cells; CHO-K1 cells transfected with the β3-AR, from Astra Zeneca; also called β3-AR; β-3AR
T2 sequence (P13945 whole entry): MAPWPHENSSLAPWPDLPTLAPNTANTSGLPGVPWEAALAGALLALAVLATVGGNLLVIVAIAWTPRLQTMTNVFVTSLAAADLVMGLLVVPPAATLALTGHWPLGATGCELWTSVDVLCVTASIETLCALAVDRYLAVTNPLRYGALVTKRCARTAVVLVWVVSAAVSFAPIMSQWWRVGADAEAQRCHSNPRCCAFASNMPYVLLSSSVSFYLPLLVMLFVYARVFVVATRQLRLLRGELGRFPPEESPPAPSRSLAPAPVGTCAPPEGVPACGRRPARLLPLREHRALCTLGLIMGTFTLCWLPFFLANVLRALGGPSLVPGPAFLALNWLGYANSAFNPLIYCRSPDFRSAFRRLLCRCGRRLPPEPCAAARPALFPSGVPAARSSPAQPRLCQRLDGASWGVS
Protocol: as §1, §2

[3] = target: T3, human β2-adrenergic receptor (human, UniProt P07550 1-413); assay: [125I] ZAG saturation binding to crude membranes of CHO-K1 cells transfected with human β2-AR, non-linear regression
T3 construct: whole, on cells; CHO-K1 cells transfected with the human β2-AR, from the University of Nottingham; also called β2-AR; β-2AR
Protocol: as §1, §2

[4] = target: T2, human β3-adrenergic receptor; assay: [125I] ZAG binding to crude membranes of transfected CHO-K1 cells; reference is ZAG on β2-AR
Protocol: as §1, §2

[5] = target: T3, human β2-adrenergic receptor; assay: [125I] ZAG binding to crude membranes of transfected CHO-K1 cells; reference is ZAG on β3-AR
Protocol: as §1, §2

T1 sequence (P08588 whole entry): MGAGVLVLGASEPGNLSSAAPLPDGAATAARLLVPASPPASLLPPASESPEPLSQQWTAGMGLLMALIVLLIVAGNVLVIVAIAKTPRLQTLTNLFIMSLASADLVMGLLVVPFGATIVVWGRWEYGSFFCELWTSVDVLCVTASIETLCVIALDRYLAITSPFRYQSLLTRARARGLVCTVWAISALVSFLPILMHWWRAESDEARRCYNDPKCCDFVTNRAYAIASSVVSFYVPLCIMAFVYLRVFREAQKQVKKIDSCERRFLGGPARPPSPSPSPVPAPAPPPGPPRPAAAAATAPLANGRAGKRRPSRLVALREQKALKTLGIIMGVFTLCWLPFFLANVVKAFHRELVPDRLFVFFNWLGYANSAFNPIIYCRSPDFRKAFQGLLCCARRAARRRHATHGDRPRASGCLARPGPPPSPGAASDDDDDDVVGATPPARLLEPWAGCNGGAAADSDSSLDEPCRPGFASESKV

B1: recombinant human zinc-α2-glycoprotein (ZAG) (ligand)
chain: QENQDGRYSLTYIYTGLSKHVEDVPAFQALGSLNDLQFFRYNSKDRKSQPMGLWRQVEGMEDWKEDSQLQKAREDMETLKDIVEYYNDSNGSHVLQGRFGCEIENNRSSGAFWKYYYDGKDYIEFNKEIPAWVPFDPAAQITKQKWEAEPVYVQRAKAYLEEECPATLRKYLKYSKNILDRQDPPSVVVTSHQAPGEKKKLKCLAYDFYPGKIDVHWTRAGQVQEPELRGDVLHNGNGTYQSWVVVAVPPQDTAPYSCHVQHSSLAQPLVVPWEAS
modifications: 125I label (iodo bead labelling) in the membrane binding studies; labelled residues not stated
notes: Glycoprotein; also called Zn-α2-glycoprotein; rhZAG
[1]
  binding result: no binding
[2]
  Kd: 0.046 µM
[3]
  Kd: 0.071 µM
[4]
  Bmax relative to β2-AR: ~3 fold
  Kd relative to β2-AR: ~0.5 fold
[5]
  Bmax relative to β3-AR: 20%
  Kd relative to β3-AR: 2 fold
